Reference: publication PMC9599728, “Polydopamine-Functionalized Copper Peroxide/ZIF-8 Nanoparticle-Based Fluorescence-Linked Immunosorbent Assay for the Sensitive Determination of Carcinoembryonic Antigen by Self-Supplied H2O2 Generatio”

Target: carcinoembryonic antigen (CEA) (UniProt P06731 35-685)
Assay: sandwich FLISA (antibody capture, aptamer nanoparticle probe); CEA on anti-CEA antibody plate; linear 0.01-20 ng/mL, LOD 7.6 pg/mL (assay values, not affinity); CEA capture 37 C 1 h, aptamer probe room temperature 1 h; washes in PBS 10 mM pH 7.4; probe blocked with 1% BSA; read-out with 4 mM OPD in 10 mM HAc-NaAc pH 5.5, 3 h, 565 nm
Settings: protein: commercial

Sequence of carcinoembryonic antigen (CEA) (P06731 35-685): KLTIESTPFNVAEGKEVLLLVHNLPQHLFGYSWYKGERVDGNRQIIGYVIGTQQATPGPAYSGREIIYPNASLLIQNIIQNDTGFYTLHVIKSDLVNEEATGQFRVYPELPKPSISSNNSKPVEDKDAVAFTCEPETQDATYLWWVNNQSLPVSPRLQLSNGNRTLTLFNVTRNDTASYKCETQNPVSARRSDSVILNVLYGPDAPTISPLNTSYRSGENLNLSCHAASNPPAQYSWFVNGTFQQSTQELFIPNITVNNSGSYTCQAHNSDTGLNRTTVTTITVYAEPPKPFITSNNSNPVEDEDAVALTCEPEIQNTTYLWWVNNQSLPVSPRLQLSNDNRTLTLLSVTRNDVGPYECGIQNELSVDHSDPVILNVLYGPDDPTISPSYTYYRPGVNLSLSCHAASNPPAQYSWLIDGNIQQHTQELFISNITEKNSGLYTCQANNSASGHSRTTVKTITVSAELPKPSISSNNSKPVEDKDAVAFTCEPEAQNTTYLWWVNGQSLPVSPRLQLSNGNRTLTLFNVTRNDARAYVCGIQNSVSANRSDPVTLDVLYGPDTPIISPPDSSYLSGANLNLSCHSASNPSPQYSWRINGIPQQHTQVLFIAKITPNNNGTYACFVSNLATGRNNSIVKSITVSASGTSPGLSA

Binder: TTTTATACCAGCTTATTCAATT (ssDNA, 5'-NH2; coupled by glutaraldehyde to CP/ZIF-8/PDA nanoparticles) [CEA aptamer]
- binding result: binds
